In PMC9187739, “MIF homolog d-dopachrome tautomerase (D-DT/MIF-2) does not inhibit accumulation and toxicity of misfolded SOD1” (Scientific Reports, 2022):

Target: T1, human SOD1^G93A (Zn/Cu superoxide dismutase, glycine to alanine at position 93) (human, UniProt P00441 1-154, G93A)
T1 construct: Zn/Cu superoxide dismutase (SOD1), human, with the ALS-linked mutation G93A; The introduction calls SOD1 a 32 kDa homodimer; also called mutant SOD1^G93A; mutant SOD1; source: E. coli BL-21, grown without Zn2+ and Cu2+ supplements, purified to homogeneity under non-denaturing conditions
Assay: co-IP; purified SOD1^G93A (2 µg) incubated with recombinant D-DT (0.2, 0.5, 1, 2, 5 and 10 µg); immunoprecipitation overnight at 4 °C with B8H10 antibody (misfolded SOD1) crosslinked to protein G Dynabeads; IP buffer 0.05 M Tris pH 7.4, 0.4 M NaCl, 0.5% Nonidet P-40; bound and unbound fractions immunoblotted for SOD1 and D-DT
Conditions: both partners purified

T1 sequence (P00441 whole entry G94A): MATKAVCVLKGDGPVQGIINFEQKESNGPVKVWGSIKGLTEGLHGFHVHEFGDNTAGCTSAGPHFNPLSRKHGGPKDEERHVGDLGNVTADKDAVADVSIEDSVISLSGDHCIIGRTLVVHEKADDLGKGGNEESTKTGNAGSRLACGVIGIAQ

binding result: binds
B1: recombinant human D-dopachrome tautomerase (D-DT/MIF-2) (enzyme)
chain: PFLELDTNLPANRVPAGLEKRLCAAAASILGKPADRVNVTVRPGLAMALSGSTEPCAQLSISSIGVVGTAEDNRSHSAHFFEFLTKELALGQDRILIRFFPLESWQIGKIGTVMTFL
notes: D-dopachrome tautomerase (D-DT, MIF-2), human; also called recombinant D-DT; source: recombinant
